# Test results: article PMC3202633
# Biological target: GFP-β1-integrin (UniProt P05556)
# Assay: co-IP; GFP-Trap capture of GFP-β1-integrin (or GFP alone) from MEFs spread on 50K-coated dishes, unstimulated or stimulated with H/0 for 10 min, cross-linked with DTBP; western blotting
# RhoGDI, sequence (Q99PT1 whole entry): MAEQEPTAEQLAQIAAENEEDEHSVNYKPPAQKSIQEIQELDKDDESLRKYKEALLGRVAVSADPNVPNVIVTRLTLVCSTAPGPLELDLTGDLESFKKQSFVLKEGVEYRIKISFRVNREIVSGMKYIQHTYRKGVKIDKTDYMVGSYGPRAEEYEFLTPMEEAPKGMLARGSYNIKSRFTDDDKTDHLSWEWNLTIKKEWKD
# UniProt P05556, sequence (P05556 21-798): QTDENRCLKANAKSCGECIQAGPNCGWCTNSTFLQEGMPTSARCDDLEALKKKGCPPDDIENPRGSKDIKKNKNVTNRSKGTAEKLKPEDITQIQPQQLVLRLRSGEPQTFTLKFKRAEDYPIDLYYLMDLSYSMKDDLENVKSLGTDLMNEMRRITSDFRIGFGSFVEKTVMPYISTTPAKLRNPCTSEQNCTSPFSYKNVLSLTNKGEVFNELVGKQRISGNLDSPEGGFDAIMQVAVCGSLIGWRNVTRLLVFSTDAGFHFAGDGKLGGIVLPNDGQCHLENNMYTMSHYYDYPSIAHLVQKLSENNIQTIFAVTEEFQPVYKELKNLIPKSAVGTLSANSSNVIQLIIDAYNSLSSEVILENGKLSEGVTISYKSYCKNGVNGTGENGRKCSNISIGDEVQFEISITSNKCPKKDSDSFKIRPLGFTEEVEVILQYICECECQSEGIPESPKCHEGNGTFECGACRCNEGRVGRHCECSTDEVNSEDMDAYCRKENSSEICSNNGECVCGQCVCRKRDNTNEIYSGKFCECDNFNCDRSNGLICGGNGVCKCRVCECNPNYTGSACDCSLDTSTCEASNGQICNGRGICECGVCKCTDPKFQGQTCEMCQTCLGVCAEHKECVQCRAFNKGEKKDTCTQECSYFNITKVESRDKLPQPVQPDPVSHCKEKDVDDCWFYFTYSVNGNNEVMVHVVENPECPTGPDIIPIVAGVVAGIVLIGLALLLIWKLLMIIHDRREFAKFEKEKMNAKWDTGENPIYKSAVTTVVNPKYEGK
substance,measurement,value
RhoGDI (from UniProt Q99PT1 1-204) (natural protein),"reduction in bound RhoGDI after 10 min H/0 stimulation, against unstimulated cells",46%
